Substitutions are numbered along the chain they refer to.

6 molecules from PMC2192576 (1996) can be followed below.

The labels stand for the following.
T1: influenza virus (A/PR/8/34) HA (hemagglutinin) peptide on HLA-DRA*01:01 / HLA-DRB1*07:01 (human)
T1 peptide: PKYVKQNTLKLAT

T2: influenza virus (A/PR/8/34) HA (hemagglutinin) peptide on HLA-DRA*01:01 / HLA-DRB1*04:01 (human)
T2 peptide: PKYVKQNTLKLAT

B1: 3BC6.6 TCR (TCR, V domains shown)
Valpha: QSVTQLGSHVSVSEGALVLLRCNYSSSVPPYLFWYVQYPNQGLQLLLKYTSAATLVKGINGFEAEFKKSETSFHLTKPSAHMSDAAEYFCAVSEDTSYDKVIFGPGTSLSVIP
Vbeta: DVKVTQSSRYLVKRTGEKVFLECVQDMDHENMFWYRQDPGLGLRLIYFSYDVEMKEKGDIPEGYSVSREKKERFSLILESASTNQTSMYLCASSLTTSGYTFGSGTRLTVV
B2: JS515.11 TCR (TCR, V domains shown)
Valpha: QSVTQLGSHVSVSEGALVLLRCNYSSSVPPYLFWYVQYPNQGLQLLLKYTTGATLVKGINGFEAEFKKSETSFHLTKPSAHMSDAAEYFCAVSEGGGSEKLVFGKGTKLTVNP
Vbeta: DVKVTQSSRYLVKRTGEKVFLECVQDMDHENMFWYRQDPGLGLRLIYFSYDVEMKEKGDIPEGYSVSREKKERFSLILESASTNQTSMYLCASSPGTSGTTYEQYFGPGTRLTVT
B3: JS515.11 TCR with Thr-51 substituted with Ser in CDR2 of the alpha chain (TCR, V domains shown)
Valpha: B2 Valpha with T51S
Vbeta: B2 Vbeta
B4: JS515.11 TCR with Gly-52 substituted with Ala in CDR2 of the alpha chain (TCR, V domains shown)
Valpha: B2 Valpha with G52A
Vbeta: B2 Vbeta
B5: hybrid TCR: JS515.11 TCRA with 3BC6.6 TCRB (TCR, V domains shown)
Valpha: B2 Valpha
Vbeta: B1 Vbeta
B6: hybrid TCR: 3BC6.6 TCRA with JS515.11 TCRB (TCR, V domains shown)
Valpha: B1 Valpha
Vbeta: B2 Vbeta

The target of the first experiment is T1, influenza virus (A/PR/8/34) HA …. As to the kind of experiment: cytokine release.
In the case of B1, the binding result is on record as “no recognition”. B2: the binding result was “recognises”.

As to B3, the binding result is on record as “recognises”.

Regarding B4, the binding result is on record as “recognises”.

Take B5: the binding result is “no recognition”. Take B6: the binding result is given as “no recognition”.

For the next experiment, the target named is T2, influenza virus (A/PR/8/34) HA …. As to the kind of experiment: cytokine release.
Take B1: the binding result is “recognises”.

Regarding B2, the binding result is reported as “recognises”. In the case of B5, the binding result is “no recognition”.

Turning to B6, the binding result is “no recognition”.
